From publication PMC4287183, “Affinity maturation of Cry1Aa toxin to the Bombyx mori cadherin-like receptor by directed evolution based on phage display and biopanning selections of domain II loop 2 mutant toxins” (MicrobiologyOpen, 2014)

B1: Cry1Aa toxin-binding region of Bombyx mori cadherin-like receptor BtR175 (BtR175-TBR) (domain or fragment)
chain: ELVIRPYNFHAPVFVFPKHGATLRLARERAVVNGLLATVDGEFLNRIVATDEDGLHAGQVAFEVVGDTEAVDYFHIVNDGENSGTLMLKQLFPEDIREFEVTIRATDGGTEPRPLSTDCTFSVVFVPIQGEPIFPTSTHTVAFIEKEAGLLERHELPRAEDRKNHLCSDDCHNIYYRIIDGNNDGHFGLDETTNVLFLVKELDRSVSETYTLTIAASNSPTGGIALTSTITITVNVREADPQPYFVRDLYTAGISTSDSINRELLILQATHSENAPIIYTIDWSTMVTDPTLASVRETAFILNPHTGVLTLNIQPTASMHGMFEFQVVATDPAGYSDRANVKIYLISTRNRVFFLFV
notes: The limits are stated for the GST fusion used in biopanning; also called GST-BtR175-TBR; source: prepared as described previously (Fujii et al. 2013); GST-BtR175-TBR from pGEX4t-3, harvested as inclusion bodies and solubilized

Legend:
[1] = biological target: Cry1Aa toxin-binding region of Bombyx mori cadherin-like receptor BtR175 (BtR175-TBR) (Bombyx mori) (UniProt Q9XY09); test: SPR; BtR175-TBR immobilized on a CM5 chip by amine coupling (Biacore J); four concentrations of toxin in PBST (0.005% Tween, pH 7.4) for 120 sec, dissociation 240 sec; 1:1 Langmuir model, global fitting; KD = kd/ka
[2] = biological target: wild-type Cry1Aa toxin (trypsin-activated) (B. thuringiensis subsp. kurstaki strain …, UniProt P0A366 1-1176, Trypsin-activated toxin core, unmutated wild type. Limits are not printed: the N-terminus at Ile29 follows the conventional trypsin cut after Arg28 (and the IETGYTP start in the phage-display primer),); test: as above; conditions: both partners purified

Molecule | Kd [1] | koff [1] | Kd [2] | koff [2]
Cry1Aa domain II loop 2 mutant toxin 371WGLA374 (trypsin-activated) (from UniProt P0A366 1-1176) (ligand) | 1.56 nM | 0.00061 s⁻¹ |  | 
Cry1Aa domain II loop 2 mutant toxin 371PHRP374 (trypsin-activated) (from UniProt P0A366 1-1176) (ligand) | 8.3 nM | 0.00122 s⁻¹ |  | 
Cry1Aa domain II loop 2 mutant toxin 371WRPQ374 (trypsin-activated) (from UniProt P0A366 1-1176) (ligand) | 0.5 nM | 0.00102 s⁻¹ |  | 
Cry1Aa domain II loop 2 mutant toxin 371WPHH374 (trypsin-activated) (from UniProt P0A366 1-1176) (ligand) | 1.55 nM | 0.00066 s⁻¹ |  | 
B1 |  |  | 25 nM | 0.00267 s⁻¹
